In US20220348651A1 (Novartis, published 2022):

T1: mouse ENTPD2 expressed on cells (mouse, UniProt O55026 1-495)
T1 construct: also called NIH3T3-mouse ENTPD2 engineered cell line; mouse ENTPD2-engineered 4T1 clone 45
T1 sequence: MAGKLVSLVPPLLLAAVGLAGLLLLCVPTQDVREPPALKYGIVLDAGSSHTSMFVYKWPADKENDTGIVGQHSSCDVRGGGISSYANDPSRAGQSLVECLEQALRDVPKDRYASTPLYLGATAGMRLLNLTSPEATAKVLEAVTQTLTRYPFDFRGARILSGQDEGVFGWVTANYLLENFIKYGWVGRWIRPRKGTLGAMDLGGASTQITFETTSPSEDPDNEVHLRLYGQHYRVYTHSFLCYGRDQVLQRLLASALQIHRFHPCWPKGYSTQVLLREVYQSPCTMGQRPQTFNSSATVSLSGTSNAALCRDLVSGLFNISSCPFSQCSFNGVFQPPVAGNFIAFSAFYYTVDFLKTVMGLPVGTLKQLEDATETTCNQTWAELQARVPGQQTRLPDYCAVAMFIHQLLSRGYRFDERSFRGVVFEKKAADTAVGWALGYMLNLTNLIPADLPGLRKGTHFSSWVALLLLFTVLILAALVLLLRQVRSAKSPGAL

T2: recombinant murine ENTPD2 (residues 29-462) used in crystallography studies (mouse, UniProt O55026 29-462, N-linked glycosylation observed at Asn129 and Asn378)
T2 construct: also called murine ENTPD2 ectodomain; mENTPD2
T2 sequence: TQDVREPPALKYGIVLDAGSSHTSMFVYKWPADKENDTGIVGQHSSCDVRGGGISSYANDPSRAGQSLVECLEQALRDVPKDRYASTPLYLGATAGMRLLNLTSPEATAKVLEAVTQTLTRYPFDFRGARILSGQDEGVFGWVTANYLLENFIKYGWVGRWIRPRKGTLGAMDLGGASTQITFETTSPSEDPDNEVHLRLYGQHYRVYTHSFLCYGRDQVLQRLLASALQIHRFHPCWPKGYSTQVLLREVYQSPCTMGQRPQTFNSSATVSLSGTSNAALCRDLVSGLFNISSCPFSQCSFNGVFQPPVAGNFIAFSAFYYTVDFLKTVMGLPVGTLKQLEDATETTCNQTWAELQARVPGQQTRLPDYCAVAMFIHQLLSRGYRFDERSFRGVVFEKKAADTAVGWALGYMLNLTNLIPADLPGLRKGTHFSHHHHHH


Tests used:
[1] = molecular target: T1, mouse ENTPD2 expressed on cells; assay: flow cytometry (FACS)
[2] = molecular target: T1, mouse ENTPD2 expressed on cells; assay: cell-based or functional assay
[3] = molecular target: T2, recombinant murine ENTPD2 (residues …); assay: X-ray crystal structure of the complex
Protocol: Structure determination by molecular replacement was performed using the previously determined human ENTPD2 coordinates and Fab coordinates from PDB code 3QRG.

Binder | EC50 [1] | ENTPD2 Functional Assay IC50 (mouse ENTPD2 NIH/3T3 cells) [2] | buried solvent-accessible surface [3]
ANTI-mouse ENTPD2 MAB13 (antibody, mouse IgG2a, kappa, V domains shown, mouse ENTPD2 selective antibody; also called Anti-ENTPD2 mAb13) VH: QVQLVQSGAELKQPGQSVKISCKASGYTFTHYGMNWVKQAPGQGLKWMGWINTDTGNPTYADDFKGRFVFSLDTSVSTAYLQISNLKNEDTATYYCVRYGTLYSGYGFFFDSWGQGTLVTVSS VL: DIMMTQSPSSLSVSAGEKATITCKSSQSLFNSNTNKNYLNWYLQKPGQSPKLLFYYASTRHTGVPDRFIGSGSGTDFTLTITSVQDEDLADYYCQQWYSYPWTFGPGTKLEIKR | 3 to 4 nM | 2.8 nM | 
ANTI-mouse ENTPD2 FAB24 (Fab, V domains shown, N-terminal residue observed and modeled as pyroglutamate in the crystal structure, Fab with the variable regions of mAb13; human CH1 and kappa constant regions; also called anti-murine ENTPD2 Fab MAB13) VH: QVQLVQSGAELKQPGQSVKISCKASGYTFTHYGMNWVKQAPGQGLKWMGWINTDTGNPTYADDFKGRFVFSLDTSVSTAYLQISNLKNEDTATYYCVRYGTLYSGYGFFFDSWGQGTLVTVSS VL: DIMMTQSPSSLSVSAGEKATITCKSSQSLFNSNTNKNYLNWYLQKPGQSPKLLFYYASTRHTGVPDRFIGSGSGTDFTLTITSVQDEDLADYYCQQWYSYPWTFGPGTKLEIKR |  |  | ~16300 Å2
